Where no end group is shown, it is not given here. The star is where a group is joined. FITC = O=C1OC2(c3ccc(O)cc3Oc3cc(O)ccc32)c2ccc(NC(=S)*)cc21; Ahx = NCCCCCC(=O)O
B1: FITC-labeled peptide corresponding to residues 699–729 of BAP1 (peptide)
peptide: {FITC-Ahx}-RRRQGVSIGRLHKQRKPDRRKRSRPYKAKRQ
B2: Transportin-1 (TNPO1) with the acidic loop (residues 337–367) replaced by a GGSGGSG linker (natural protein)
chain: MEYEWKPDEQGLQQILQLLKESQSPDTTIQRTVQQKLEQLNQYPDFNNYLIFVLTKLKSEDEPTRSLSGLILKNNVKAHFQNFPNGVTDFIKSECLNNIGDSSPLIRATVGILITTIASKGELQNWPDLLPKLCSLLDSEDYNTCEGAFGALQKICEDSAEILDSDVLDRPLNIMIPKFLQFFKHSSPKIRSHAVACVNQFIISRTQALMLHIDSFIENLFALAGDEEPEVRKNVCRALVMLLEVRMDRLLPHMHNIVEYMLQRTQDQDENVALEACEFWLTLAEQPICKDVLVRHLPKLIPVLVNGMKYSDIDIILLKGDVEEDETIPDSEQDIRGGSGGSGDTISDWNLRKCSAAALDVLANVYRDELLPHILPLLKELLFHHEWVVKESGILVLGAIAEGCMQGMIPYLPELIPHLIQCLSDKKALVRSITCWTLSRYAHWVVSQPPDTYLKPLMTELLKRILDSNKRVQEAACSAFATLEEEACTELVPYLAYILDTLVFAFSKYQHKNLLILYDAIGTLADSVGHHLNKPEYIQMLMPPLIQKWNMLKDEDKDLFPLLECLSSVATALQSGFLPYCEPVYQRCVNLVQKTLAQAMLNNAQPDQYEAPDKDFMIVALDLLSGLAEGLGGNIEQLVARSNILTLMYQCMQDKMPEVRQSSFALLGDLTKACFQHVKPCIADFMPILGTNLNPEFISVCNNATWAIGEISIQMGIEMQPYIPMVLHQLVEIINRPNTPKTLLENTAITIGRLGYVCPQEVAPMLQQFIRPWCTSLRNIRDNEEKDSAFRGICTMISVNPSGVIQDFIFFCDAVASWINPKDDLRDMFCKILHGFKNQVGDENWRRFSDQFPLPLKERLAAFYGV

Experiments:
Experiment in all cases: fluorescence polarisation
[1] = target: FITC-labeled peptide corresponding to residues 699–729 of BAP1 (human)
[2] = target: Importin α5 (KPNA1), residues 66–512, without the IBB domain (UniProt P52294 66-512)
Importin α5 (KPNA1), residues 66–512, without the IBB domain, sequence (P52294 66-512): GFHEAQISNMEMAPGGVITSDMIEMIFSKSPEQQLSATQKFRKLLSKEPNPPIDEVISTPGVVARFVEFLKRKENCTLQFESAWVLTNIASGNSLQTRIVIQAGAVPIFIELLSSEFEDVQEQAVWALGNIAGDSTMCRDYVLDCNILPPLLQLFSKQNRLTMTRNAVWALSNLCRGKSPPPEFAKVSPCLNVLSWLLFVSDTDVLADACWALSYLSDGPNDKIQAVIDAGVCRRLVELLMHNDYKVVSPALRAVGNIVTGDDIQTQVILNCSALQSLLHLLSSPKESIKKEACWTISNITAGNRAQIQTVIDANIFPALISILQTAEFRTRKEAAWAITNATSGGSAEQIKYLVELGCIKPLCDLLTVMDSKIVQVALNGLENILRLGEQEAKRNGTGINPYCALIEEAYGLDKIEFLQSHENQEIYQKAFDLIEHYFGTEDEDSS

[3] = target: B1

Molecule: Importin α1 (KPNA2), residues 60–529, without the IBB domain (from UniProt P52292 60-529) (domain or fragment)
- Kd [1]: > 7.2 µM

Molecule: B1
- Kd [2]: 670 nM

Molecule: B2
- Kd [3]: 19.6 nM
